The supplement of paper PMC9112550, “Optimization of the antimicrobial peptide Bac7 by deep mutational scanning” (BMC Biology, 2022)

Test system: Escherichia coli TOP10
Assay: shrunken log2 fold change of peptide-encoding DNA abundance (4.5 h post-induction vs induction); higher = less antimicrobial activity (less host growth inhibition)
Settings: time post-induction: 4.5 h; library: site-saturation at positions 5, 18, 19, 20
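Further: peptides expressed intracellularly from a pBAD plasmid library in pooled LB shake-flask culture, induced with 0.3% L-arabinose, DNA abundance read by NGS, three biological replicates, DESeq2 with apeglm shrinkage.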

Sequence	shrunken log2 fold change
RRIRERPPRLPRPRPRPVADPRP	-0.0439
RRIRGRPPRLPRPRPRPISCPRP	0.279
RRIRIRPPRLPRPRPRPLVEPRP	-0.0936
RRIRFRPPRLPRPRPRPAMWPRP	0.0848
RRIRNRPPRLPRPRPRPIQVPRP	-0.0304
RRIRKRPPRLPRPRPRPNEVPRP	-0.152
RRIRCRPPRLPRPRPRPSAQPRP	0.336
RRIRMRPPRLPRPRPRPHISPRP	-0.0571
RRIRRRPPRLPRPRPRPPLNPRP	0.696
RRIRYRPPRLPRPRPRPCCVPRP	-0.422
RRIRFRPPRLPRPRPRPGFMPRP	-0.242
RRIRARPPRLPRPRPRPHSTPRP	0.0355
RRIRPRPPRLPRPRPRPACMPRP	0.165
RRIRLRPPRLPRPRPRPFSWPRP	-0.213
RRIRNRPPRLPRPRPRPHADPRP	-0.315
RRIRQRPPRLPRPRPRPPHCPRP	0.0459
RRIRKRPPRLPRPRPRPCQHPRP	-0.167
RRIRSRPPRLPRPRPRPPINPRP	-0.32
RRIRCRPPRLPRPRPRPWNLPRP	-0.19
RRIRVRPPRLPRPRPRPLWEPRP	0.203
RRIRHRPPRLPRPRPRPDRAPRP	0.217
RRIRVRPPRLPRPRPRPYGTPRP	-0.13
RRIRVRPPRLPRPRPRPFFQPRP	-0.0276
RRIRIRPPRLPRPRPRPPPKPRP	0.46
RRIRQRPPRLPRPRPRPCFQPRP	-0.252

Sequence	shrunken log2 fold change
RRIRGRPPRLPRPRPRPMIPPRP	-0.219
RRIRCRPPRLPRPRPRPYQMPRP	-1.3
RRIRTRPPRLPRPRPRPGGSPRP	0.135
RRIRPRPPRLPRPRPRPEDKPRP	0.163
RRIRIRPPRLPRPRPRPCKLPRP	-0.167
RRIRLRPPRLPRPRPRPDYIPRP	-0.161
RRIRERPPRLPRPRPRPMMFPRP	-0.0555
RRIRVRPPRLPRPRPRPKYTPRP	-0.421
RRIRPRPPRLPRPRPRPRWHPRP	0.186
RRIRFRPPRLPRPRPRPWKMPRP	-0.211
RRIRPRPPRLPRPRPRPCELPRP	-0.17
RRIRSRPPRLPRPRPRPTRKPRP	0.138
RRIRKRPPRLPRPRPRPDVWPRP	0.679
RRIRHRPPRLPRPRPRPDPTPRP	-0.0262
RRIRDRPPRLPRPRPRPKKFPRP	0.117
RRIRMRPPRLPRPRPRPATIPRP	0.23
RRIRLRPPRLPRPRPRPLGMPRP	0.0609
RRIRHRPPRLPRPRPRPPWTPRP	-0.131
RRIRYRPPRLPRPRPRPYPNPRP	-0.36
RRIRMRPPRLPRPRPRPLAWPRP	0.219
RRIRERPPRLPRPRPRPVHEPRP	-0.00127
RRIRWRPPRLPRPRPRPIYQPRP	-0.288
RRIRQRPPRLPRPRPRPCAMPRP	-0.0872
RRIRHRPPRLPRPRPRPQWMPRP	0.0263
RRIRLRPPRLPRPRPRPKNNPRP	-0.297

Sequence	shrunken log2 fold change
RRIRQRPPRLPRPRPRPIWSPRP	-0.514
RRIRGRPPRLPRPRPRPCVHPRP	0.107
RRIRCRPPRLPRPRPRPIVWPRP	0.102
RRIRYRPPRLPRPRPRPFHGPRP	0.0221
RRIRCRPPRLPRPRPRPRPIPRP	0.266
RRIRIRPPRLPRPRPRPHQKPRP	-0.0756
RRIRWRPPRLPRPRPRPWLHPRP	-0.0248
RRIRKRPPRLPRPRPRPKIPPRP	0.174
RRIRSRPPRLPRPRPRPAPVPRP	0.269
RRIRLRPPRLPRPRPRPDKEPRP	0.0143
RRIRTRPPRLPRPRPRPFCNPRP	0.0687
RRIRSRPPRLPRPRPRPFSVPRP	-0.416
RRIRTRPPRLPRPRPRPLYQPRP	-0.375
RRIRKRPPRLPRPRPRPFSGPRP	-0.172
RRIRMRPPRLPRPRPRPNPGPRP	0.0378
RRIRVRPPRLPRPRPRPKCIPRP	0.0104
RRIRIRPPRLPRPRPRPGCNPRP	-0.247
RRIRGRPPRLPRPRPRPLEEPRP	1.76
RRIRHRPPRLPRPRPRPYYKPRP	-0.913
RRIRERPPRLPRPRPRPHGMPRP	0.0601
RRIRNRPPRLPRPRPRPKGDPRP	0.0687
RRIRFRPPRLPRPRPRPNASPRP	-0.304
RRIRMRPPRLPRPRPRPHNKPRP	-0.305
RRIRRRPPRLPRPRPRPIWRPRP	0.181
RRIRMRPPRLPRPRPRPQTHPRP	0.318

Sequence	shrunken log2 fold change
RRIRYRPPRLPRPRPRPKHAPRP	-0.0577
RRIRRRPPRLPRPRPRPCPIPRP	0.0892
RRIRNRPPRLPRPRPRPYIYPRP	-0.514
RRIRYRPPRLPRPRPRPEIKPRP	-0.114
RRIRWRPPRLPRPRPRPPHTPRP	0.494
RRIRCRPPRLPRPRPRPSLCPRP	-0.49
RRIRERPPRLPRPRPRPMRIPRP	0.257
RRIRMRPPRLPRPRPRPVMPPRP	-0.0271
RRIRKRPPRLPRPRPRPIVHPRP	-0.42
RRIRGRPPRLPRPRPRPCKVPRP	0.00141
RRIRDRPPRLPRPRPRPSQFPRP	-0.181
RRIRERPPRLPRPRPRPLGEPRP	0.0918
RRIRMRPPRLPRPRPRPHYIPRP	-0.335
RRIRERPPRLPRPRPRPESKPRP	-0.145
RRIRKRPPRLPRPRPRPWSSPRP	-0.136
RRIRPRPPRLPRPRPRPTEHPRP	-0.1
RRIRDRPPRLPRPRPRPFLHPRP	0.204
RRIRDRPPRLPRPRPRPPDMPRP	0.123
RRIRRRPPRLPRPRPRPQLQPRP	0.413
RRIRWRPPRLPRPRPRPAHWPRP	0.0695
RRIRGRPPRLPRPRPRPLVPPRP	0.417
RRIRWRPPRLPRPRPRPWPRPRP	0.223
RRIRVRPPRLPRPRPRPHWGPRP	-0.0382
RRIRCRPPRLPRPRPRPHEKPRP	-0.277
RRIRLRPPRLPRPRPRPRNSPRP	-0.051

Sequence	shrunken log2 fold change
RRIRARPPRLPRPRPRPVKEPRP	-0.0493
RRIRSRPPRLPRPRPRPPYRPRP	-0.119
RRIRPRPPRLPRPRPRPSGFPRP	0.241
RRIRRRPPRLPRPRPRPVLWPRP	0.886
RRIRMRPPRLPRPRPRPHRTPRP	-0.177
RRIRMRPPRLPRPRPRPHQDPRP	-0.117
RRIRRRPPRLPRPRPRPCSWPRP	-0.124
RRIRNRPPRLPRPRPRPEGKPRP	-0.0135
RRIRCRPPRLPRPRPRPRMHPRP	0.066
RRIRLRPPRLPRPRPRPVWVPRP	-0.0407
RRIRFRPPRLPRPRPRPKLKPRP	0.0386
RRIRPRPPRLPRPRPRPMPIPRP	0.0579
RRIRVRPPRLPRPRPRPGCKPRP	0.32
RRIRERPPRLPRPRPRPYFWPRP	-0.143
RRIRQRPPRLPRPRPRPSIWPRP	-0.0257
RRIRYRPPRLPRPRPRPLIHPRP	-1.38
RRIRRRPPRLPRPRPRPSFCPRP	-0.00369
RRIRRRPPRLPRPRPRPRKSPRP	0.339
RRIRKRPPRLPRPRPRPYWNPRP	-0.106
RRIRFRPPRLPRPRPRPCRMPRP	-0.168
RRIRTRPPRLPRPRPRPFAVPRP	-0.0779
RRIRNRPPRLPRPRPRPIYMPRP	-0.473
RRIRERPPRLPRPRPRPCYDPRP	-1.93
RRIRWRPPRLPRPRPRPICFPRP	0.135
RRIRSRPPRLPRPRPRPIVNPRP	-0.259
